Results on 1 molecule are retold here after PMC2583361 (Critical reviews in biochemistry and molecular biology, 2008).

Where two headings read alike, the source gives them in different places.

Test in all cases: ITC
The target of experiment [1] is T1, Escherichia coli single-stranded DNA binding protein (SSB) (E. coli, UniProt P0AGE0 1-178).
The target of experiment [2] is T1, Escherichia coli single-stranded DNA …. This is another data set of the same source.
The target is the same in experiment [3]. The source holds these as a separate data set.
The target is the same in experiment [4]. The source holds these as a separate data set.

T1 sequence (P0AGE0 whole entry): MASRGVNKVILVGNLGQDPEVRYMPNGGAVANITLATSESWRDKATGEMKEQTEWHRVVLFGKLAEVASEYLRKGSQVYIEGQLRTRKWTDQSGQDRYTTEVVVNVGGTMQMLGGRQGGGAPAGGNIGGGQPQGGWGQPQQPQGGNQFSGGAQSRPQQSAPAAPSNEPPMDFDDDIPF

B1: PriA DNA helicase (enzyme, E. coli, UniProt P17888 1-732, looked up)
chain: MPVAHVALPVPLPRTFDYLLPEGMTVKAGCRVRVPFGKQQERIGIVVSVSDASELPLNELKAVVEVLDSEPVFTHSVWRLLLWAADYYHHPIGDVLFHALPILLRQGRPAANAPMWYWFATEQGQAVDLNSLKRSPKQQQALAALRQGKIWRDQVATLEFNDAALQALRKKGLCDLASETPEFSDWRTNYAVSGERLRLNTEQATAVGAIHSAADTFSAWLLAGVTGSGKTEVYLSVLENVLAQGKQALVMVPEIGLTPQTIARFRERFNAPVEVLHSGLNDSERLSAWLKAKNGEAAIVIGTRSALFTPFKNLGVIVIDEEHDSSYKQQEGWRYHARDLAVYRAHSEQIPIILGSATPALETLCNVQQKKYRLLRLTRRAGNARPAIQHVLDLKGQKVQAGLAPALITRMRQHLQADNQVILFLNRRGFAPALLCHDCGWIAECPRCDHYYTLHQAQHHLRCHHCDSQRPVPRQCPSCGSTHLVPVGLGTEQLEQTLAPLFPGVPISRIDRDTTSRKGALEQQLAEVHRGGARILIGTQMLAKGHHFPDVTLVALLDVDGALFSADFRSAERFAQLYTQVAGRAGRAGKQGEVVLQTHHPEHPLLQTLLYKGYDAFAEQALAERRMMQLPPWTSHVIVRAEDHNNQHAPLFLQQLRNLILSSPLADEKLWVLGPVPALAPKRGGRWRWQILLQHPSRVRLQHIINGTLALINTIPDSRKVKWVLDVDPIEG
For the molecule B1, the dH was -28 kcal/mol in experiment [1], -28.7 kcal/mol in experiment [2], -5.1 kcal/mol in experiment [3] and -6.8 kcal/mol in experiment [4]. Besides, the stoichiometry N (as a rule, the number of molecules, sites or subunits per partner or assembly) turned out to be 1.7 in experiment [1], 5.2 in experiment [2], 3.7 in experiment [3] and 4.6 in experiment [4].
